Each block holds one sequence with its values, some of them ahead of it.
Assays:
[1] = target: HLA-A*69:01; experiment: IEDB peptide-MHC binding, purified MHC/direct/fluorescence; filed as Kd, often an IC50 or EC50 that approximates it; ≥ and ≤ were set here for values at or beyond the usual limits of such assays
[2] = target: HLA-A*02:01; experiment: as above
[3] = target: HLA-B*08:01; experiment: IEDB peptide-MHC binding, purified MHC/competitive/radioactivity; filed as Kd, often an IC50 or EC50 that approximates it; ≥ and ≤ were set here for values at or beyond the usual limits of such assays
[4] = target: HLA-A*01:01; experiment: as above
[5] = target: HLA-A*30:02; experiment: as above
[6] = target: HLA-A*24:02; experiment: as above
[7] = target: HLA-A*23:01; experiment: as above
[8] = target: HLA-A*02:01; experiment: IEDB peptide-MHC binding, purified MHC/competitive/fluorescence; ≥ and ≤ were set here for values at or beyond the usual limits of such assays
[9] = target: HLA-A*26:01; experiment: IEDB peptide-MHC binding, purified MHC/competitive/radioactivity; filed as Kd, often an IC50 or EC50 that approximates it; ≥ and ≤ were set here for values at or beyond the usual limits of such assays
[10] = target: HLA-A*30:01; experiment: as above
[11] = target: HLA-A*33:01; experiment: as above; details: source organism: Dengue virus 3 Martinique/1243/1999
[12] = target: HLA-A*68:01; experiment: as above; details: source organism: Dengue virus 3 Martinique/1243/1999
[13] = target: HLA-A*01:01; experiment: IEDB peptide-MHC binding, purified MHC/direct/fluorescence; filed as Kd, often an IC50 or EC50 that approximates it; ≥ and ≤ were set here for values at or beyond the usual limits of such assays; details: source organism: Treponema pallidum
[14] = source organism: Salmonella enterica
[15] = source organism: Dengue virus 3 Martinique/1243/1999
[16] = source organism: Dengue virus 4 Philippines/H241/1956
[17] = source organism: Dengue virus 1 Brazil/97-11/1997
[18] = source organism: Vaccinia virus WR
[19] = source organism: Zaire ebolavirus
[20] = source organism: Dengue virus 2 Jamaica/1409/1983
[21] = source organism: Brucella melitensis
[22] = source organism: Escherichia coli
[23] = source organism: Sudan ebolavirus
[24] = source organism: Treponema pallidum

Sequence: AIDPRRIVA
Kd [1, 14]: ≥ 20000 nM | Kd [2, 14]: ≥ 20000 nM

Sequence: AIKRRLRTL
Kd [3, 15]: 9.67 nM

Sequence: ALKRRLRTL
Kd [3, 16]: 1.89 nM

Sequence: ASVKKDLISY
Kd [4, 17]: ≥ 37800 nM | Kd [5, 17]: 19.4 nM

Sequence: AYQHALNEL
Kd [6, 16]: 199 nM | Kd [7, 16]: 2340 nM

Sequence: CIKSHSVSL
Kd [3, 18]: 2.3 nM

Sequence: DLVLFDLDE
IC50 [8, 19]: ≥ 425000 nM

Sequence: DVKKDLISY
Kd [9, 20]: 369 nM

Sequence: EKVDAIDGEY
Kd [5, 20]: 25.9 nM | Kd [9, 20]: 9410 nM

Sequence: ELEPPFGDSY
Kd [4, 16]: 117 nM | Kd [9, 16]: 1320 nM

Sequence: ENPYKTWAY
Kd [9, 15]: 2950 nM

Sequence: ETDLNQWMV
Kd [1, 21]: 0.8 nM | Kd [2, 21]: 163 nM

Sequence: ETLLLLGLM
Kd [9, 15]: 133 nM

Sequence: EVDSFSLGI
Kd [4, 17]: 7390 nM

Sequence: EVKTCTWPK
Kd [10, 15]: 9340 nM | Kd [11]: 8.54 nM | Kd [12]: 25.2 nM

Sequence: EWITDFVGKT
Kd ([9]; source organism: Dengue virus 3 Singapore/8120/1995): ≥ 28200 nM

Sequence: FGTNETEYL
IC50 [8, 19]: 27400 nM

Sequence: FIRLKLTKL
Kd [3, 18]: 135 nM

Sequence: GIQRTVFFVL
Kd [3, 16]: 6610 nM

Sequence: GKLGLITNT
IC50 [8, 19]: ≥ 231000 nM

Kd [1, 22]: 974 nM | Kd [2, 22]: 6.3 nM
Sequence: GLLASAPGI

Sequence: GLLKKFEFL
Kd [3, 18]: 46.8 nM

Sequence: GTVLVQVKY
Kd [4, 17]: 1240 nM | Kd [5, 17]: 5110 nM

Sequence: GVFEGIAVL
Kd ([2]; source organism: Mycobacterium tuberculosis variant bovis): 15.5 nM

Sequence: GVSTDIPSA
IC50 [8, 23]: 2080 nM

Sequence: GWNDWQQVPF
Kd [6, 17]: 1740 nM | Kd [7, 17]: 1400 nM

Sequence: HFQRALIFIL
Kd [3, 20]: 1730 nM

Sequence: HLKHHKQCV
Kd [3, 18]: 4.51 nM

Sequence: HLKNSAENK
Kd [10, 18]: 861 nM

Sequence: IIGTNGNHM
IC50 [8, 23]: ≥ 144000 nM

Sequence: IKRKLRTLIL
Kd [3, 17]: 5800 nM

Kd [13]: 2520 nM | Kd [1, 24]: 1630 nM | Kd [2, 24]: 17300 nM
Sequence: IVDYVTAYG

Source: the Immune Epitope Database (IEDB)
